The values below come from publication PMC7573392, “Monitoring Allosteric Interactions with CXCR4 Using NanoBiT Conjugated Nanobodies” (Cell Chemical Biology, 2020).

In assay [1] the target is T1, LgBiT-CXCR4 (Homo sapiens, UniProt P61073).
T1 construct: GSSG linker and TEV recognition site (EDLYFQS), between LgBiT and CXCR4 (N); expressed in transfected cells; whole cells in A1-A4, isolated membranes in A9/A10
Description: NanoBiT association kinetic measurements (complemented luminescence) in HEK293 cells stably expressing LgBiT-CXCR4. In kind it is binding. The note with it: KD = koff/kon at LgBiT-CXCR4. How it is done: Cells (30,000 per well) were plated in white 96-well poly-D-lysine coated plates (10 μg/ml in PBS) as described above. After 24 hours, media was removed and replaced with 50 μl HBSS containing furimazine (1:400 final concentration) and incubated at 37°C for 10 minutes and basal luminescence was measured. […] The resulting luminescence was measured over 60 minutes at 37°C. Luminescence was measured using the PHERAstar FS plate reader.
Nanobody binding association kinetic data were fitted to the following mono-exponential association function: Y=Ymax(1−e^−kobs.t) where Ymax is the specific binding at infinite time, t is the time of incubation, and kobs is the rate constant for the observed rate of association.
kon and koff values were determined by simultaneously fitting nanobody binding association kinetic curves obtained at different nanobody concentrations (L) to the equation above with the relationship between kobs and the two kinetic binding rate constants kon and koff given by: kon=kobs−koff/L
Kinetically determined nanobody KD values were determined with the following equation: KD=koff/kon

Assay [2] deals with T1, LgBiT-CXCR4. Nature of the assay: NanoBiT saturation binding (complemented luminescence) in HEK293 cells stably expressing LgBiT-CXCR4. The conditions noted are these: increasing concentrations added to HEK LgBiT-CXCR4 cells. Here is the method: Saturation binding with VUN400-HiBiT was performed on HEK 293 cells stably expressing the LgBiT-CXCR4 receptor. Cells were plated at 30,000 cells/well in white 96-well plates previously coated with poly-D-lysine (10 μg/ml in PBS) in 100 μl complete media (DMEM with 10% FCS). After 24 hours, the media was removed and replaced with 100 μl HBSS containing VUN400-HiBiT within the range of 4-500 nM. Where used, CXCL12, AMD3100 or IT1t were also added at this point. The plate was incubated for two hours at 37°C. Furimazine (1:400 final concentration) was added to each well and the plate was incubated for a further 15 minutes at 37°C. Luminescence was measured using the PHERAstar FS plate reader.
Saturation binding curves of VUN400-HiBiT were fitted using the following equation: Specificbinding=Bmax×[B]/[B]+KD where Bmax is the maximal specific binding, [B] is the concentration of VUN400-HiBiT, and KD is the equilibrium dissociation constant (nM).

T1 sequence (P61073 2-352 limits assumed): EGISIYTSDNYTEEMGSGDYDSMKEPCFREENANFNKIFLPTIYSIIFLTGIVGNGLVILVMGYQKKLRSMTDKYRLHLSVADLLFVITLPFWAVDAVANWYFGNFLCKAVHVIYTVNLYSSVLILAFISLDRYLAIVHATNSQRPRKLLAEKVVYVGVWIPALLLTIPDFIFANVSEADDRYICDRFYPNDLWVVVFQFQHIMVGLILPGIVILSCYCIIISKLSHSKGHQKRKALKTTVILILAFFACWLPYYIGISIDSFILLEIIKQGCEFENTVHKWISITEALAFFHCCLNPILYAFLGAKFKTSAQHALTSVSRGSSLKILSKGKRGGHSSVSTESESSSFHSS

On to “HiBiT: purified HiBiT-HaloTag fusion protein, circa 34 kDa (Promega)”, for which, in assay [1], the “pKD (determined from kinetic rate constants)” value was determined as 6.4. Further, the “saturation binding (in words)” value in assay [2] is “linear, indicative of low affinity”.
